These results are taken from article PMC6283879, “Structural assembly of the megadalton-sized receptor for intestinal vitamin B12 uptake and kidney protein reabsorption” (Nature Communications, 2018).

Data set [1] deals with the molecule itself. In words: crystal structure; AMN(20–357) and cubilin(26–135) co-expressed in E. coli and co-purified; crystals at 4 °C, sitting drop, 1.5 M magnesium sulphate, 0.1 M MES pH 5.5; 2.3 Å, SAD phasing.
Data set [2] is described as follows: flow cytometry, cubilin surface expression, CHO K1. The following applies: glycan lost; control: wild type AMN co-transfected with cubilin.

B1: N-terminal fragment of cubilin (residues 26–135) (domain or fragment, human, UniProt O60494 26-135, looked up)
chain: GELELQRQKRSINLQQPRMATERGNLVFLTGSAQNIEFRTGSLGKIKLNDEDLSECLHQIQKNKEDIIELKGSAIGLPQNISSQIYQLNSKLVDLERKFQGLQQTVDKKV
notes: The methods name 'human' before AMN only ('human AMN ... and the N-terminal fragment of cubilin'); Cloned into the NdeI site of multiple cloning site 2 of pACYCDuet-1; also called trimeric cubilin; source: also in E. coli lysate / His-tag column eluate with the AMN T41I mutant
The stoichiometry N is a count of units in the complex or per binding partner. On to B1, for which, in data set [1], the “stoichiometry N” value was found to be 3.

B2: amnionless (AMN): S37A (protein)
parent chain: MGVLGRVLLWLQLCALTQAVSKLWVPNTDFDVAANWSQNRTPCAGGAVEFPADKMVSVLVQEGHAVSDMLLPLDGELVLASGAGFGVSDVGSHLDCGAGEPAVFRDSDRFSWHDPHLWRSGDEAPGLFFVDAERVPCRHDDVFFPPSASFRVGLGPGASPVRVRSISALGRTFTRDEDLAVFLASRAGRLRFHGPGALSVGPEDCADPSGCVCGNAEAQPWICAALLQPLGGRCPQAACHSALRPQGQCCDLCGAVVLLTHGPAFDLERYRARILDTFLGLPQYHGLQVAVSKVPRSSRLREADTEIQVVLVENGPETGGAGRLARALLADVAENGEALGVLEATMRESGAHVWGSSAAGLAGGVAAAVLLALLVLLVAPPLLRRAGRLRWRRHEAAAPAGAPLGFRNPVFDVTASEELPLPRRLSLVPKAAADSTSHSYFVNPLFAGAEAEA
Take B2: the localisation_or_trafficking result in data set [2] is listed as “no change”.

B3: amnionless (AMN): S37A/T41I (protein)
parent chain: MGVLGRVLLWLQLCALTQAVSKLWVPNTDFDVAANWSQNRTPCAGGAVEFPADKMVSVLVQEGHAVSDMLLPLDGELVLASGAGFGVSDVGSHLDCGAGEPAVFRDSDRFSWHDPHLWRSGDEAPGLFFVDAERVPCRHDDVFFPPSASFRVGLGPGASPVRVRSISALGRTFTRDEDLAVFLASRAGRLRFHGPGALSVGPEDCADPSGCVCGNAEAQPWICAALLQPLGGRCPQAACHSALRPQGQCCDLCGAVVLLTHGPAFDLERYRARILDTFLGLPQYHGLQVAVSKVPRSSRLREADTEIQVVLVENGPETGGAGRLARALLADVAENGEALGVLEATMRESGAHVWGSSAAGLAGGVAAAVLLALLVLLVAPPLLRRAGRLRWRRHEAAAPAGAPLGFRNPVFDVTASEELPLPRRLSLVPKAAADSTSHSYFVNPLFAGAEAEA
B3: the localisation_or_trafficking entry in data set [2] is listed as “no change”.
